Key:
Test in all cases: human serum on Con A/WGA/Jacalin column, lectin-specific displacer fraction, LC-MS/MS; grade = SEQUEST rank group (+ = ranks 1-5, ++++ = 16-20)
[1] = molecular target: T1, INTER-ALPHA-TRYPSIN INHIBITOR HEAVY CHAIN H1 (human, UniProt P19827 35-672)
T1 construct: from human serum; also called ITH1
T1 sequence (looked up): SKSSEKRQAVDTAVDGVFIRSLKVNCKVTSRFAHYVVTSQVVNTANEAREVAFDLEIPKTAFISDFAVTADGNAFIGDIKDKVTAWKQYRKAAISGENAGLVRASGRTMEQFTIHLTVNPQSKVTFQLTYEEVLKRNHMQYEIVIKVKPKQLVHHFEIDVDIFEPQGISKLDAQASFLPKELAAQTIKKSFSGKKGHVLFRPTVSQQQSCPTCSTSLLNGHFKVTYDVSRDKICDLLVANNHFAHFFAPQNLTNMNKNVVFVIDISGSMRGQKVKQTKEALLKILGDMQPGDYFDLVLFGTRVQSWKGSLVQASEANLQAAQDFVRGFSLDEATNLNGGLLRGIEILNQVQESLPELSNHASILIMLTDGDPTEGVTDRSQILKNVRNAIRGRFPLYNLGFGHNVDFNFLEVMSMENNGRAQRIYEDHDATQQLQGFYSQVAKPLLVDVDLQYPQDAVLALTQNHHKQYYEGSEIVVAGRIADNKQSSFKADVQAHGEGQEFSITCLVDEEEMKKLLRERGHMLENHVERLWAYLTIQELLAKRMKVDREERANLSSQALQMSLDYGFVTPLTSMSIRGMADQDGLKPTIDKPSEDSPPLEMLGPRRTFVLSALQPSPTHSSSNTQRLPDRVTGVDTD

[2] = molecular target: T2, IG MU CHAIN C REGION (human, UniProt P01871-1 1-453)
T2 construct: domain: C region; Polyclonal serum IgM, identified through its constant region; variable regions and light chains not defined
T2 heavy (looked up): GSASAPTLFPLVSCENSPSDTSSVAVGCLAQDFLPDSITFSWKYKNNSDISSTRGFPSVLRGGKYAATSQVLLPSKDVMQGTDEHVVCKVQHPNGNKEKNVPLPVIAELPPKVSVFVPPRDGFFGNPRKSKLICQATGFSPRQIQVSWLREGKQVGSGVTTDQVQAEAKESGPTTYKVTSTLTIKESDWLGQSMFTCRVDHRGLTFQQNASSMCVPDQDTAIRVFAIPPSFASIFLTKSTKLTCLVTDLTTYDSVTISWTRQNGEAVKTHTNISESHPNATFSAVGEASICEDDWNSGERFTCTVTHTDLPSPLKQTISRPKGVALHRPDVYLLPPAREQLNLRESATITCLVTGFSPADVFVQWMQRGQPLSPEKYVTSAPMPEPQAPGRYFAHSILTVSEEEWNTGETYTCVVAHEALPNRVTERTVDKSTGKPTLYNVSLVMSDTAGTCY

[3] = molecular target: T3, ALPHA-2-MACROGLOBULIN (human, UniProt P01023 24-1474)
T3 construct: also called A2MG; α2-macroglobulin
T3 sequence (looked up): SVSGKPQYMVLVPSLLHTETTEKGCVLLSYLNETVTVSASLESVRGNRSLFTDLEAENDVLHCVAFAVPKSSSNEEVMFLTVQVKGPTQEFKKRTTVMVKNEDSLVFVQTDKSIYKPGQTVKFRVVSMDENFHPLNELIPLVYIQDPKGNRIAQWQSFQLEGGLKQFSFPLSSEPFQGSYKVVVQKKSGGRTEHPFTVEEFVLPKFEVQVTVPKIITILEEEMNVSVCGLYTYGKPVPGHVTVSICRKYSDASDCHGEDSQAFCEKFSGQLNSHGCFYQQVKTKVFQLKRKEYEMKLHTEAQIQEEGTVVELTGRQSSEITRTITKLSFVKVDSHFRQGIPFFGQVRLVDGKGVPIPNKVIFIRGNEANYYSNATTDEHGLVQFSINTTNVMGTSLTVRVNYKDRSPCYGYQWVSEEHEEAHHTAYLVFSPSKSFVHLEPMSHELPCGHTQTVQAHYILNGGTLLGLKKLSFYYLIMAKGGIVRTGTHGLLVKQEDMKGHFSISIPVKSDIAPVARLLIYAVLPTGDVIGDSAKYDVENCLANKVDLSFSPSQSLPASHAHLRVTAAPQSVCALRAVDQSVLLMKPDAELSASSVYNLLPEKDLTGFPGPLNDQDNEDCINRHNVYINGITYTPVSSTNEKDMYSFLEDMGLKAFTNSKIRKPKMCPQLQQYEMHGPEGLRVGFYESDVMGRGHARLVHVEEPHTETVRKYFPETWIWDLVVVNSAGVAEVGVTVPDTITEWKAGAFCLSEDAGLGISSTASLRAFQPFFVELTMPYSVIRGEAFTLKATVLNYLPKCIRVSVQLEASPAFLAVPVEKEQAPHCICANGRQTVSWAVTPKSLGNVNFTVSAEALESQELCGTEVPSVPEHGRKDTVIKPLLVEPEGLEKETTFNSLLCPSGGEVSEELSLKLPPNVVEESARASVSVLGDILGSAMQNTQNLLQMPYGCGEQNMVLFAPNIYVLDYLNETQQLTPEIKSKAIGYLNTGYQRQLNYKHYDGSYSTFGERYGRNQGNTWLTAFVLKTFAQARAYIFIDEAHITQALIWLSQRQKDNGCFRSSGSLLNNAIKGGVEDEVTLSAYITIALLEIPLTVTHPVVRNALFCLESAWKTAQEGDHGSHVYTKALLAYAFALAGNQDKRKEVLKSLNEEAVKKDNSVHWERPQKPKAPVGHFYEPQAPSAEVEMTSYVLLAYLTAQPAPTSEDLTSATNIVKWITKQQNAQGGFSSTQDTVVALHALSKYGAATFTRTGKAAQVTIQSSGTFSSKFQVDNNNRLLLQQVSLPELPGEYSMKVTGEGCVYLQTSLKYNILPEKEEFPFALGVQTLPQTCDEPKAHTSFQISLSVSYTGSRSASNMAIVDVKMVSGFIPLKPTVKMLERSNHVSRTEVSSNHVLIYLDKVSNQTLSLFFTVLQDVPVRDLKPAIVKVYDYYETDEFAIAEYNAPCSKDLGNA

B1: wheat germ agglutinin (WGA), agarose-bound (other, UniProt P10968 27-197, looked up)
chain: QRCGEQGSNMECPNNLCCSQYGYCGMGGDYCGKGCQNGACWTSKRCGSQAGGATCTNNQCCSQYGYCGFGAEYCGAGCQGGPCRADIKCGSQAGGKLCPNNLCCSQWGFCGLGSEFCGGGCQSGACSTDKPCGKDAGGRVCTNNYCCSKWGSCGIGPGYCGAGCQSGGCDG
modifications: immobilized on agarose
notes: Lectin; released with N-acetyl-glucosamine; Coated on the plate in the lectin ELISA
- SEQUEST ranking (relative abundance in the WGA displacement fraction) [1]: 11 to 15 rank
- SEQUEST ranking (relative abundance in the WGA displacement fraction) [2]: 6 to 10 rank
- SEQUEST ranking (relative abundance in the WGA displacement fraction) [3]: 1 to 5 rank
